The values below come from patent publication US20040127421A1 (KIMBERLY CLARK WORLDWIDE, published 2004).

Experiment [1] deals with T1, Active MMP-9 enzyme (UniProt P14780 107-707, limits assumed).
T1 construct: mature; also called matrix metalloproteinase-9; mature MMP-9
In words: enzyme inhibition, FRET peptide substrate.
Procedure: (§1) The second assay utilized the technique of fluorescence resonance energy transfer (FRET). The substrate peptide (Calbiochem) of seven amino acids was coupled to a carboxyl terminal dinitrophenyl acceptor, and an amino terminal 2-aminobenzo-anthraniloyl (Abz) moiety donor. […] The protein mixture was added to the fluorescent peptide substrate, and was quickly mixed. Fluorescence intensity as a function of time was measured with a Dynex MFX fluorescence microtiter plate reader. Fluorescence intensity was related back to moles of peptide cleaved by producing a standard curve with an Abz containing non-FRET peptide.
(§2) These assays utilized FRET peptides that incorporated specific MMP cleavage sites into their sequence.

The target in experiment [2] is T1, Active MMP-9 enzyme. The experiment is described as follows: enzyme inhibition, fluoresceinated collagen substrate, Dixon plot. On the procedure: Two enzymatic assays were performed. The first assay measured the enzymatic hydrolysis of fluoresceinated collagen by MMP-9 as a function of time. […] The protein mixture was added to the collagen substrate, and was quickly mixed. Fluorescence emission intensity at 520 nm was measured as a function of time (excitation wavelength 495 nm) in a Shimadzu RF5301 fluorometer (Lakowicz, 1983). The fluorescein release assay was used to determine the inhibitory constant (Ki) of the peptide inhibitor ([I]) according to Segel (1993) via the use of Dixon plots (1/v vs. [I]), such that: […]

For experiment [3], the target named is T1, Active MMP-9 enzyme. In words: isothermal titration calorimetry, 1 mM peptide into 20 µM MMP-9, 20 mM cacodylate pH 6.8, 20 mM NaCl. Here is the method:
Isothermal titration calorimetry (ITC) was performed with a VP-ITC instrument from MicroCal, Inc. Titrations were carried out by injecting 5 μL of an inhibitor peptide solution (at concentration ranges from 0.5 mM to 2.0 mM) into the 1.4 mL stirred reaction cell. MMP-9 ranged in concentration from 50 to 80 μM in the cell. Both the inhibitor and the enzyme were in 20 mM sodium cacodylate (pH 5.5-7.0), 40 mM NaCl, or 20 mM Tris-HCl (pH 7.0-7.5), 40 mM NaCl. Titrations were conducted between 20° C. and 40° C. Typical experimental conditions for the titrations were a 10 second injection period followed by a 240 second delay between injections for a total of 40 injections. Blank titrations of inhibitor peptide into buffer were performed in order to correct for heats of dilution and mixing.
The peptide was dissolved in 20 mM cacodylate (pH 6.8), 20 mM NaCl at a final concentration of 1 mM. MMP-9 was dialyzed into the same buffer at a final concentration of 20 μM. A series of standard injections were performed as described above.
(In general: In ITC the heat of successive injections is recorded.)

In another experiment the target is T2, MMP-3 (UniProt P08254 100-477, limits assumed).
T2 construct: also called matrix metalloproteinase-3
The experiment is described as follows: enzyme inhibition, FRET peptide substrate.

A further experiment has as its target T3, MMP-7 (UniProt P09237 95-267, limits assumed).
T3 construct: also called matrix metalloproteinase-7
T3 sequence (looked up): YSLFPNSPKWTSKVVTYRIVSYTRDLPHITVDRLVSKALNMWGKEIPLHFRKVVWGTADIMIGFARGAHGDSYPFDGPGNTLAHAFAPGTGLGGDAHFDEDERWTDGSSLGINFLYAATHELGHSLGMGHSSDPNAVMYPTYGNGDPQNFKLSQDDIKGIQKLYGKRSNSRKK
The experiment is described as follows: enzyme inhibition, FRET peptide substrate.

Another experiment addresses T4, MMP-2 (Homo sapiens (Human), UniProt P08253 110-660).
T4 construct: an active enzyme without signal and propeptide is likely; also called matrix metalloproteinase-2
T4 sequence: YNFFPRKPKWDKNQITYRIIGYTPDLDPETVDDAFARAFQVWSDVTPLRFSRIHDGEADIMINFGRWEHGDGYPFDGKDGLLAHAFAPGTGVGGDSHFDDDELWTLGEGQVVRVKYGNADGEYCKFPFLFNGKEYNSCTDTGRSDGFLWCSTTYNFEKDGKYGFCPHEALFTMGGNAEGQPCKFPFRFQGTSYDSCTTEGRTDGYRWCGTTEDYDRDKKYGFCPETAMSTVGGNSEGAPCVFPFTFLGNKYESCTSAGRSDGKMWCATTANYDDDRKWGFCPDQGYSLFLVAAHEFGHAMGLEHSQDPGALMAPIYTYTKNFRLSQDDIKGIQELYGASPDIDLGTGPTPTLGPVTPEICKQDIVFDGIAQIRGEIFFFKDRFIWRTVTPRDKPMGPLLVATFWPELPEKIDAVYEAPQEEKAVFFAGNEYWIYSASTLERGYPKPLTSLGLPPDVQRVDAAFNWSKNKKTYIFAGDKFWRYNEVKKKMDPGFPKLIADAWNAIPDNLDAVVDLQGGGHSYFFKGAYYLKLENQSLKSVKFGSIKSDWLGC
The experiment is described as follows: isothermal titration calorimetry, 1 mM 19-mer into 20 µM MMP-2, 20 mM cacodylate pH 6.8, 10 mM NaCl, 25° C.

Experiment [4] has as its target T1, Active MMP-9 enzyme. The experiment is described as follows: SPR (BIACore-X), calculated from ka/kd.
Procedure: MMP-9 at a concentration of 75 ng/μL was coupled to the activated surface at a flow rate of 10 μL per minute for ten minutes. The final surface was inactivated by flowing 1 M ethanolamine-HCl at a rate of 10 μL per minute for five minutes over the sensor surface. […] The association and dissociation phases of the binding isotherms were smoothed by an automated FFT routine prior to modeling rate constants. Binding isotherms were evaluated by simultaneously fitting the forward (kₐ) and reverse (kd) rate constants to:
There was an observed bulk transport effect of approximately 100 response units at the start of the dissociation phase that was not modeled.

By Ki is commonly meant the equilibrium dissociation constant of an inhibitor or competing ligand from its target.

T1 sequence (P14780 107-707 limits assumed): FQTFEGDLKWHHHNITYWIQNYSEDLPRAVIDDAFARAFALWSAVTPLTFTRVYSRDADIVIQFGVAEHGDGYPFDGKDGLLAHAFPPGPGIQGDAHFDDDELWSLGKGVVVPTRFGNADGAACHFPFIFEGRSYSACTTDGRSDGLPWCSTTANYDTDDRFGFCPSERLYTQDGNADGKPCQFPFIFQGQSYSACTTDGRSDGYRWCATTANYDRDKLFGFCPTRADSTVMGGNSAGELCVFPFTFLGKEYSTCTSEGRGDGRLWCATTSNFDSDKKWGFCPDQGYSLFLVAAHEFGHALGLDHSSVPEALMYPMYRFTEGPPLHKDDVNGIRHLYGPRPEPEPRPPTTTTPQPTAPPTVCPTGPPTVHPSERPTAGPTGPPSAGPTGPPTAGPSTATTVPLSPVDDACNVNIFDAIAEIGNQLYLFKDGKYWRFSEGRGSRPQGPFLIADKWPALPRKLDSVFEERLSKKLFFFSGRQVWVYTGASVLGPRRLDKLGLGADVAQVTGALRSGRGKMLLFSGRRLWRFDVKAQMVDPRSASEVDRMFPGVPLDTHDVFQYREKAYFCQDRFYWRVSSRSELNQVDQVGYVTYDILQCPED
T2 sequence (P08254 100-477 limits assumed): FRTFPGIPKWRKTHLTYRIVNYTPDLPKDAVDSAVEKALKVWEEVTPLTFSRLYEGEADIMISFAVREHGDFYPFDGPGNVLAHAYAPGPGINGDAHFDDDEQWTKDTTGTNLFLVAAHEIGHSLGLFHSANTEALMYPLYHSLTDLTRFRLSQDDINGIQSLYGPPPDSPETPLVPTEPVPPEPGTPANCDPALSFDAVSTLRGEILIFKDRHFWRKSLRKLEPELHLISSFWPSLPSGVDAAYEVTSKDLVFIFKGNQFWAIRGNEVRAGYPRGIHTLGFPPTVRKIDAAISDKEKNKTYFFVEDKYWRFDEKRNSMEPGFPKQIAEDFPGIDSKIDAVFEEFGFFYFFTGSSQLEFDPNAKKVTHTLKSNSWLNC
Procedure for MMP-3: as §1, §2
Procedure for MMP-7: as §1, §2

Consider PRCGNPDVA [9-mer (SEQ ID NO:12) PRCGNPDVA], for which the figures for the Ki with Active MMP-9 enzyme [1] and in the experiment with Active MMP-9 enzyme [2] were 233 µM and 186 µM, respectively.

On to NYNFFPRKPK [10-mer (SEQ ID NO:13) NYNFFPRKPK], for which the Ki in the experiment with Active MMP-9 enzyme [1] was found to be 328 µM; with Active MMP-9 enzyme [2], 221 µM.

B1: 19-mer (SEQ ID NO:11) PRCGNPDVANYNFFPRKPK (peptide)
peptide: H-PRCGNPDVANYNFFPRKPK-OH
notes: Synthesized by Sigma-Genosys, >95% pure by RP-HPLC; Free termini; the acetylated/amidated Ac-19-mer was used only in migration assays; also called 19mer peptide
For the molecule B1, the figures for the Ka in the experiment with Active MMP-9 enzyme [3], with MMP-2 and with Active MMP-9 enzyme [4] were 1.65e+06 M⁻¹, 2.4e+06 M⁻¹ and 5.3e+06 M⁻¹, respectively. The Stoichiometry was determined as 0.975 in the experiment with Active MMP-9 enzyme [3] and 0.99 with MMP-2. In addition, the ΔH in the experiment with Active MMP-9 enzyme [3] was -26.1 kcal/mol; in the experiment with MMP-2, -15.4 kcal/mol. Further, the figures for the ΔS with Active MMP-9 enzyme [3] and with MMP-2 were -11.6 cal mol^-1 K^-1 and -21.1 cal mol^-1 K^-1, respectively. The Ki with Active MMP-9 enzyme [1] stood at 45.2 µM; with MMP-3 it was 6.4 µM; with MMP-7, 22.8 µM; with Active MMP-9 enzyme [2], 30.3 µM.
